Measured values: publication PMC5159797

B1: GST-SKAP [not stated] / GFP-Kif2b [human] (parent)
chain 1: MAAPEAPPLDRVFRTTWLSTECDSHPLPPSYRKFLFETQAADLAGGTTVAAGNLLNESEKDCGQDRRAPGVQPCRLVTMTSVVKTVYSLQPPSALSGGQPADTQTRATSKSLLPVRSKEVDVSKQLHSGGPENDVTKITKLRRENGQMKATDTATRRNVRKGYKPLSKQKSEEELKDKNQLLEAVNKQLHQKLTETQGELKDLTQKVELLEKFRDNCLAILESKGLDPALGSETLASRQESTTDHMDSMLLLETLQEELKLFNETAKKQMEELQALKVKLEMKEERVRFLEQQTLCNNQVNDLTTALKEMEQLLEM
chain 2: MASQFCLPESPCLSPLKPLKPHFGDIQEGIYVAIQRSDKRIHLAVVTEINRENYWVTVEWVEKAVKKGKKIDLETILLLNPALDSAEHPMPPPPLSPLALAPSSAIRDQRTATKWVAMIPQKNQTASGDSLDVRVPSKPCLMKQKKSPCLWEIQKLQEQREKRRRLQQEIRARRALDVNTRNPNYEIMHMIEEYRRHLDSSKISVLEPPQEHRICVCVRKRPLNQRETTLKDLDIITVPSDNVVMVHESKQKVDLTRYLQNQTFCFDHAFDDKASNELVYQFTAQPLVESIFRKGMATCFAYGQTGSGKTYTMGGDFSGTAQDCSKGIYALVAQDVFLLLRNSTYEKLDLKVYGTFFEIYGGKVYDLLNWKKKLQVLEDGNQQIQVVGLQEKEVCCVEEVLNLVEIGNSCRTSRQTPVNAHSSRSHAVFQIILKSGRIMHGKFSLVDLAGNERGADTTKASRKRQLEGAEINKSLLALKECILALGQNKPHTPFRASKLTLVLRDSFIGQNSSTCMIATISPGMTSCENTLNTLRYANRVKKLNVDVRPYHRGHYPIGHEAPRMLKSHIGNSEMSLQRDEFIKIPYVQSEEQKEIEEVETLPTLLGKDTTISGKGSSQWLENIQERAGGVHHDIDFCIARSLSILEQKIDALTEIQKKLKLLLADLHVKSKVE

Variants of: B1
Assay: GST pull-down, anti-GFP blot quantified
Settings: with GFP-Kif2b [human]; GFP-Kif2b from HEK293T cell lysates; parent: 1; read off a plot
A ratio to parent of 1.2 was found for chain 1 S232E S237E T294E in this work. A ratio to parent of 0.7 was found for chain 1 S232A S237A T294A in this work.
